Usually Kd stands for the constant that tells how readily two partners part at equilibrium.

From US20250171560A1 (INNOVATIVE CELLULAR THERAPEUTICS, published 2025) come the findings set out here.

In assay [1] the target is T1, recombinantly expressed PAP (ACPP-His) (Homo sapiens (Human), UniProt P15309 33-379, limits assumed).
T1 construct: ACPP gene cloned into PTSE-His, expressed in HEK293, purified on Histrap FF; also called serum prostatic acid phosphatase; ACPP antigen; not shown: His tag from vector PTSE-His
T1 sequence: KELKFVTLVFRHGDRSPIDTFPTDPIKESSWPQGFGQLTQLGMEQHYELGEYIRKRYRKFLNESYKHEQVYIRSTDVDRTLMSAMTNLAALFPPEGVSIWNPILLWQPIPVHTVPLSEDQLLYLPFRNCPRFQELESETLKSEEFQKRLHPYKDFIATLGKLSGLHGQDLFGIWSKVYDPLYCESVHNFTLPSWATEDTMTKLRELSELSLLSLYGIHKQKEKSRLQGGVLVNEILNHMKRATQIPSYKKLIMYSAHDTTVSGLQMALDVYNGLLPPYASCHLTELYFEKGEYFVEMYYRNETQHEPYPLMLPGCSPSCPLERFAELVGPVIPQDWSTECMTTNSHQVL
The assay is described as follows: SPR, BIAcore X-100; antibody captured by anti-human antibody on chip, recombinant PAP as mobile phase. Here is the method:
(§1) For the affinity assay in FIG. 10, the affinity of two monoclonal antibodies, S5D1 and S5F2, was analyzed using GE's BIAcore X-100 Biomolecular Interaction Analyzer. Affinity analysis was performed using a conventional procedure. The human monoclonal antibody S5D1 or S5F2 was captured using an anti-human antibody coated on a chip. Affinity analysis was then performed using different concentrations of recombinantly expressed PAP as the mobile phase. […] S5D1 has a higher affinity for ACPP antigen.
A general note: Surface plasmon resonance follows binding to a sensor surface in real time, without labels.

In assay [2] the target is T1, recombinantly expressed PAP (ACPP-His). The assay is described as follows: BIAcore X-100, antibody captured by anti-human antibody on the chip, recombinant PAP as the mobile phase. The procedure: as §1
Assay [3] deals with T2, recombinant UPK2 extracellular domain (UPK2-His) (Homo sapiens (Human), UniProt O00526 85-155).
T2 construct: Made in E. coli; not shown: His tag
T2 sequence: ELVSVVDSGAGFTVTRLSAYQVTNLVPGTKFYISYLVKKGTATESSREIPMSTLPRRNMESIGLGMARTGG
The assay is described as follows: ELISA, antibody dilution series on UPK2-his coated at 0.5 ug/ml, OD490. Here is the method:
The ability of recombinant whole antibodies to bind antigen UPK2-His was analyzed using a classical ELISA method.
Background: An ELISA detects its analyte on a solid surface through an enzyme-linked reagent.

For assay [4], the target named is T2, recombinant UPK2 extracellular domain …. Put plainly: SPR, BIAcore X-100; antibody captured by anti-human antibody on chip, UPK2-His as mobile phase. The procedure:
(§2) The affinity of the eight monoclonal antibodies was analyzed using GE's BIAcore X-100. Affinity analysis was performed using a conventional procedure by first capturing the human monoclonal antibody with an anti-human antibody coated on a chip, and then using different concentrations of recombinant UPK2-His as the mobile phase for affinity analysis. […] Among them, the binding and dissociation of S7F11/S7G7 were slow, and the binding of S3D10 was too slow. When the three monoclonal antibodies were analyzed by BIAcore X-100 for affinity analysis, the automatic fitting of KD was poor, and the data was for reference only.

For assay [5] the target is unchanged. Put plainly: phage ELISA, purified scFv phage on UPK2-his coated at 0.5 ug/ml, OD490.
The target is the same in assay [6]. Put plainly: SPR, BIAcore X-100; antibody captured, UPK2-His as mobile phase; remark Kd overrun, fit poor, for reference only. The procedure: as §2
The target is the same in assay [7]. Put plainly: SPR, BIAcore X-100; antibody captured, UPK2-His as mobile phase; remark U-value = 15, fit poor, for reference only. Here is the method:
as §2

In assay [8] the target is T1, recombinantly expressed PAP (ACPP-His). The assay is described as follows: SPR, BIAcore X-100; antibody captured by anti-human antibody on chip, recombinant PAP as mobile phase; speculated value, read as weaker than 100 nM because the next sentence says S5D1 has the higher affinity. The procedure: as §1
The target of assay [9] is T2, recombinant UPK2 extracellular domain …. The assay is described as follows: SPR, BIAcore X-100; antibody captured by anti-human antibody on chip, UPK2-His as mobile phase; exponent as printed, koff/kon gives 2.34e-8. Here is the method: as §2

B1: ACPP antibody S5D1 (human full antibody) (antibody, V domains shown)
VH: EVQLVQSGAEVKKPGESLKISCKGSGYTFTNYWIGWVRQMPGKGLEWMGRIYPSDSYTNYSPSFQGQVTISADKSISTAYLQWSSLKASDTAMYYCARDLEPTHHYSWGQGTLVTVSS
VL: QSVLTQPASVSGSPGQSVTISCTGTSSDVGGYNYVSWYQQHPGKPPKLMIYEVSKRPSGVPDRFSGSKSGNTASLTISGLQAEDEADYYCSSHTSSNTLIFGGGTKVTVL
notes: Variable regions cloned into vectors pTSEG1n (heavy) and pTSEK (light) and expressed in HEK293 as human full antibody; also called monoclonal antibody S5D1
Regarding B1, the dissociation constant Kd in assay [1] was approximately 9 nM; in [2], 9.02 nM.

B2: recombinant anti-UPK2 monoclonal antibody S3A4 (murine-human chimeric) (antibody, V domains shown)
VH: EVKLKQSGAELVKPGASVKLSCKASGYTLTSYYIYWVKQRPGQGLEWIGGISPSNGNTYFTEKFKNMATLTVDKSSNTAYMQLSSLTSEDSAVYYCARNYDYDVGFAYWGQGTLVTVSS
VL: DVVMTQTPLSLPVSLGDQASISCRSSQSIVHSNGNTYLEWYLQKPGQSPKLLIYKVSNRFSGVPDRFSGSGSGTDFTLKISRVEAEDLGVYYCFQGSHVPFTFGSGTKLEIK
notes: Murine variable regions, human constant regions (vectors pTSEG1n, pTSEK), HEK293; also called UPK2-S3A4
For the molecule B2, the “EC50 (read off the curve)” value in assay [3] was approximately 0.6 nM. In addition, in [4], the Kd was found to be 27.1 nM.

B3: scFv UPK2-S2B7 (phage display clone) (scFv)
scFv: EVQLQQSGAELMKPGTSVKMSCKAAGYTFTKYWIGWVKQRPGHGLEWIGDIYPGGGYTLFNEKFKGKATLTADTSSSTAYMQLSSLTSEDSAIYYCARGNYWGQGTTLTVSSGGGGSGGGGSGGGGSDVVMTQTPLTLSVTIGQPASISCKSSQSLLDSDGKTYLNWLLQRPGQSPKRLIYLVSKLDSGVPDRFTGSGSGTDFTLKISRVEAEDLGVYYCWQGTHFPHTFGGGTKLEMK
notes: also called clone S2B7
On to B3, for which the “EC50 (read off the curve)” value in assay [5] was approximately 3e+10 cfu/ml.

B4: recombinant anti-UPK2 monoclonal antibody S7F9 (murine-human chimeric) (antibody, V domains shown)
VH: QVQLKQSGPGLVRPGASVTMSCKASGYTFTSNWMHWVKQRPGQGLDWIGMIDPSNSDTRLNQKFKDKATLNVDKSSNTAYMQLSSLTSDDSAVYYCMRGGGDYWGQGTTLTVSS
VL: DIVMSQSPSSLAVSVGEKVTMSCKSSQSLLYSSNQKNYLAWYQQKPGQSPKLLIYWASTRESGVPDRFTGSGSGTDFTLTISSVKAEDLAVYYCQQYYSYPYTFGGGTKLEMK
notes: Murine variable regions, human constant regions (vectors pTSEG1n, pTSEK), HEK293; also called UPK2-S7F9
Regarding B4, in assay [3], the “EC50 (read off the curve)” value was approximately 0.5 nM. Further, in assay [4], the dissociation constant (Kd) was 16.7 nM.

B5: recombinant anti-UPK2 monoclonal antibody S7F11 (murine-human chimeric) (antibody, V domains shown)
VH: EVQLKESGAELVRSGASVKLSCTASAFNIKDYYMNWMKQRPEQGLEWIGWIDPENGDTKYAPKFQGKATITADTSSSTAYLQLTSLTSEDSAVFYCNVNYKYDWFAYWGQGTLVTVSA
VL: DVVMTQSQKFMSTSVGDRVSVTCKASQNVGTNVAWYQQKPGQSPRALIYSASYRYSGVPDRFTGSGSGTDFTLTISNVQSEDLAEYFCQQYNTYPWTFGGGTKLEIK
notes: the first set is used here; Murine variable regions, human constant regions; also called UPK2-S7F11
As to B5, the Kd in assay [6] is 2.32 nM.

B6: recombinant anti-UPK2 monoclonal antibody S3D10 (murine-human chimeric) (antibody, V domains shown)
VH: QVQLQQSGAELVRSGASVKLSCTDSGFNIKDYYMNWVKQRPEQGLEWIGWIDPENGVTQYDPKFQGKATVTADTFSNTAYLQLSSLTSEDTAVYYCNANYKYDWFGYWGQGTLVTVSA
VL: NIVMTQSPSSLSASLGERVSLTCRASQEISGYLSWLQQKPDGTIKRLIYAASTLDSGVPERFSGSRSGSDYSLTISSLESEDFADYYCLQYASYPWTFGGGTKLEMK
notes: Murine variable regions, human constant regions (vectors pTSEG1n, pTSEK), HEK293; also called UPK2-S3D10
For B6, the Kd in assay [7] was determined as 4060 nM.

B7: recombinant anti-UPK2 monoclonal antibody S2E2 (murine-human chimeric) (antibody, V domains shown)
VH: QVKLQQSGPELVRPGASVKMSCKASGYTFTTYWMHWVKQRPGQGLEWIGMIDPSNSDTRLNQKFKDKATLNVDTSSNTAYMHLSSLTSEDSAVYYCTLGGTEYWGQGATLTVSS
VL: SIVMTQSPATLSVTPGDRVSLSCRASQSIGDYLHWFQQKSHESPRLLIKYASQSISGIPSRFSGSGSGSDFTLIINTMEPEDVGVYYCQNAHTYPYTFGGGTKLEIK
notes: Murine variable regions, human constant regions (vectors pTSEG1n, pTSEK), HEK293; also called UPK2-S2E2
As for B7, the “EC50 (read off the curve)” value in assay [3] was approximately 0.5 nM. Besides, the Kd in assay [4] was determined as 2.82 nM.

B8: ACPP antibody S5F2 (human full antibody) (antibody, V domains shown)
VH: QVQLVQSGAEVKKPGSSVKVSCKASEDTFSSYVISWVRQAPGQGLEWMGAFIPLLGRVHYAQEFQGRLTITADESTGTAYMELKGLRSDDTAMYYCARDQGFAGDDAFDIWGQGTMVTVSS
VL: LPVLTQPPSASGTPGQRVTISCSGSSSNIGSNAVDWYQQLPGTAPKLLIYTNNRRPSGVPDRFSGSKSGTSGSLAISGLQFEDEADYYCAAWDDSLSGVIFGGGTKVTVL
notes: Human full antibody from vectors pTSEG1n and pTSEK, HEK293
Take B8: the Kd in assay [8] is more than 100 nM.

B9: recombinant anti-UPK2 monoclonal antibody S3C10 (murine-human chimeric) (antibody, V domains shown)
VH: QVQLKESGGGLVQPGESLKLSCESSEFPFPSHDMSWVRKTPEKRLELVAAINSDGGSTYYPDTMERRFIISRDNTKKTLYLQMSSLRSEDTALYYCASLPTFAYWGQGTLVTVSA
VL: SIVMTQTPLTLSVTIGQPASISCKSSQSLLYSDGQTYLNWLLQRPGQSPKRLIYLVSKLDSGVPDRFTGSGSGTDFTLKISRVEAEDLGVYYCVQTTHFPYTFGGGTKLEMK
notes: Murine variable regions, human constant regions (vectors pTSEG1n, pTSEK), HEK293; also called UPK2-S3C10
Turning to B9, the “EC50 (read off the curve)” value in assay [3] is approximately 0.5 nM. In assay [4], the equilibrium dissociation constant (Kd) was found to be 0.911 nM.

B10: recombinant anti-UPK2 monoclonal antibody S2B7 (murine-human chimeric) (antibody, V domains shown)
VH: EVQLQQSGAELMKPGTSVKMSCKAAGYTFTKYWIGWVKQRPGHGLEWIGDIYPGGGYTLFNEKFKGKATLTADTSSSTAYMQLSSLTSEDSAIYYCARGNYWGQGTTLTVSS
VL: not shown
notes: Murine variable regions, human constant regions (vectors pTSEG1n, pTSEK); also called UPK2-S2B7
For B10, the “EC50 (read off the curve)” value in [3] was approximately 0.5 nM. In addition, in assay [9], the Kd amounted to 23.4 nM.
